# Test results published in article PMC2409434.
# Tested on: ArgR (arginine repressor) (Escherichia coli)
# Assay: EMSA
# Details: EMSA essentially as Burke et al. 1994 with 1 mM L-arginine; ArgR dilution buffer 20 mM Tris-HCl pH 8.2, 20 mM MgCl2, 150 mM NaCl, 5 mM DTT, 1 ug/ml BSA, 0.01% …
row,Substance,K half
1,cer 190 bp Arg-box fragment,10 nM
2,loxP 198 bp fragment (P1 putative Arg-box),> 200 nM
